The target of the first assay is FcγRIIIa on human PBMC effector cells (human) (UniProt P08637). As to the kind of experiment: cell-based or functional assay.
Chain of human V158 FcγRIIIa extracellular region fused with glutathione S-transferase (GST) (human) (P08637 17-208 F176V): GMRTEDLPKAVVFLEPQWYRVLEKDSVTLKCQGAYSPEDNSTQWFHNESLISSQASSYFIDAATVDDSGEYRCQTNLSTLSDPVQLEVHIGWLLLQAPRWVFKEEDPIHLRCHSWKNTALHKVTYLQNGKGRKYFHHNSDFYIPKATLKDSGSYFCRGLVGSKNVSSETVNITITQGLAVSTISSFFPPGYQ
Chain of human FcγRIIb extracellular region, GST-tagged (human) (P31994 43-217): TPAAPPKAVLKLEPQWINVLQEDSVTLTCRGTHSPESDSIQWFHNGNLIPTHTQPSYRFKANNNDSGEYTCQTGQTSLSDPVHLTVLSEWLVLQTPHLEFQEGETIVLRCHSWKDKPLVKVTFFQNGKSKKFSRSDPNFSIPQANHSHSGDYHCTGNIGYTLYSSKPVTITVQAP
For the substance S239D/I332E alemtuzumab (antibody), the ADCC EC50, DoHH-2 targets, V158/F158 PBMCs came to 3 ng/mL; the ADCC Fold Improvement Over WT amounted to 3.3 fold; the ADCC log(EC50), DoHH-2 targets, V158/F158 PBMCs is 0.49 log(ng/ml).

Consider V264I/I332E alemtuzumab (antibody), for which the ADCC EC50, DoHH-2 targets, V158/F158 PBMCs is 4 ng/mL and the ADCC log(EC50), DoHH-2 targets, V158/F158 PBMCs was 0.6 log(ng/ml).

The next assay addresses human FcγRIIb extracellular region, GST-tagged (human) (UniProt P31994). Description: AlphaScreen competition.
As to “S239N/S298A/I332E trastuzumab (antibody)”, the FcγRIIb Fold is 5.15 fold vs WT.

The substance S239D/I332E trastuzumab (antibody) returned a FcγRIIb Fold of 19.7 fold vs WT.

Consider “S239D/V264I/I332E trastuzumab (antibody)”, for which the FcγRIIb Fold came to 14.4 fold vs WT.

Another assay addresses human V158 FcγRIIIa extracellular region fused with glutathione S-transferase (GST) (human) (UniProt P08637). Description: AlphaScreen competition. Background: In Alpha technology, singlet oxygen from a donor bead excites a nearby acceptor bead.
In turn, E318R trastuzumab (antibody) displayed a FcγRIIIa Fold of 1.06 fold vs WT.

In turn, S324V trastuzumab (antibody) gave a FcγRIIIa Fold of 1.17 fold vs WT.

Substance S324Y trastuzumab (antibody) returned a FcγRIIIa Fold of 0.98 fold vs WT.

The substance F275W trastuzumab (antibody) registered a FcγRIIIa Fold of 1.11 fold vs WT.

Take “P230A/E233D/I332E trastuzumab (antibody)”: the FcγRIIIa Fold amounted to 1.87 fold vs WT.

The substance Y278E trastuzumab (antibody) registered a FcγRIIIa Fold of 0.9 fold vs WT.

On to S239D/I332E alemtuzumab (antibody), for which the FcγRIIIa Fold was determined as 56.1 fold vs WT.

K274L trastuzumab (antibody): the FcγRIIIa Fold stood at 1.09 fold vs WT.

As to K274E trastuzumab (antibody), the FcγRIIIa Fold stood at 6.11 fold vs WT.

With E233D trastuzumab (antibody), the FcγRIIIa Fold was 0.85 fold vs WT.

V302I trastuzumab (antibody) yielded a FcγRIIIa Fold of 1.01 fold vs WT.

Turning to P230A trastuzumab (antibody), the FcγRIIIa Fold was 1.09 fold vs WT.

With K326I trastuzumab (antibody), the FcγRIIIa Fold was determined as 1.43 fold vs WT.

Y278W trastuzumab (antibody) came in with a FcγRIIIa Fold of 0.41 fold vs WT.

In turn, “V264I/S298A/I332E trastuzumab (antibody)” gave a FcγRIIIa Fold of 16.5 fold vs WT.

Consider “S239D/A330Y/I332E/L235D trastuzumab (antibody)”, for which the FcγRIIIa Fold came to 7.04 fold vs WT.

With “S239N/A330L/I332E trastuzumab (antibody)”, the FcγRIIIa Fold amounted to 12.9 fold vs WT.

For “S239N/S298A/I332E trastuzumab (antibody)”, the FcγRIIIa Fold stood at 32.1 fold vs WT.

As for P230A/E233D trastuzumab (antibody), the FcγRIIIa Fold was 0.92 fold vs WT.

Consider N276Y trastuzumab (antibody), for which the FcγRIIIa Fold stood at 0.56 fold vs WT.

In turn, K274T trastuzumab (antibody) yielded a FcγRIIIa Fold of 1.41 fold vs WT.

“S239D/A330Y/I332E/V240I trastuzumab (antibody)” yielded a FcγRIIIa Fold of 28 fold vs WT.

For V323I trastuzumab (antibody), the FcγRIIIa Fold turned out to be 0.83 fold vs WT.

Take E333H trastuzumab (antibody): the FcγRIIIa Fold was found to be 0.75 fold vs WT.

With V240I/V266I trastuzumab (antibody), the FcγRIIIa Fold was determined as 1.72 fold vs WT.

The substance E272Y trastuzumab (antibody) showed a FcγRIIIa Fold of 8.7 fold vs WT.

Consider N276R trastuzumab (antibody), for which the FcγRIIIa Fold was 0.66 fold vs WT.

Consider “S239D/A330Y/I332E/V264T trastuzumab (antibody)”, for which the FcγRIIIa Fold worked out at 17.7 fold vs WT.

Substance K326T trastuzumab (antibody) registered a FcγRIIIa Fold of 1.88 fold vs WT.

“S239D/A330Y/I332E/L234I trastuzumab (antibody)” yielded a FcγRIIIa Fold of 22.4 fold vs WT.

In the case of K274R trastuzumab (antibody), the FcγRIIIa Fold came out at 1.41 fold vs WT.

Consider E333T trastuzumab (antibody), for which the FcγRIIIa Fold was 0.78 fold vs WT.

As for K274Y trastuzumab (antibody), the FcγRIIIa Fold was 1.06 fold vs WT.

With V273I trastuzumab (antibody), the FcγRIIIa Fold was 0.79 fold vs WT.

N276S trastuzumab (antibody) gave a FcγRIIIa Fold of 0.41 fold vs WT.

For E283R trastuzumab (antibody), the FcγRIIIa Fold is 0.67 fold vs WT.

On to “S239D/I332E/A330I trastuzumab (antibody)”, for which the FcγRIIIa Fold was 59.1 fold vs WT.

Consider “S239D/V264I/I332E trastuzumab (antibody)”, for which the FcγRIIIa Fold turned out to be 36.6 fold vs WT.

In turn, T335D trastuzumab (antibody) gave a FcγRIIIa Fold of 2.79 fold vs WT.

As for “S239N/A330Y/I332E trastuzumab (antibody)”, the FcγRIIIa Fold turned out to be 14.2 fold vs WT.

Y278T trastuzumab (antibody) returned a FcγRIIIa Fold of 1.87 fold vs WT.

S324R trastuzumab (antibody): the FcγRIIIa Fold was 0.71 fold vs WT.

The substance “S239D/A330Y/I332E/K326E trastuzumab (antibody)” registered a FcγRIIIa Fold of 64.1 fold vs WT.

For T335Y trastuzumab (antibody), the FcγRIIIa Fold stood at 1.56 fold vs WT.

In the case of T335R trastuzumab (antibody), the FcγRIIIa Fold worked out at 2.58 fold vs WT.

With N276E trastuzumab (antibody), the FcγRIIIa Fold was found to be 0.87 fold vs WT.
